Assay results published in paper PMC6827314, “An aldo-keto reductase with 2-keto-L-gulonate reductase activity functions in L-tartaric acid biosynthesis from vitamin C in Vitis vinifera” (The Journal of Biological Chemistry, 2019).

Legend:
[1] = biological target: the molecule itself; assay: crystal structure; ligand-free Vv2KGR, space group P2(1), four subunits (chains A-D) in the asymmetric unit, 1.58 Å; crystals from 1.26 M ammonium sulfate, 100 mM sodium acetate/acetic acid pH 4.5, 200 mM NaCl, 16 °C; oligomeric interface analysed with PDBePISA
purified protein [2] = substrate: O=C(O)C(=O)[C@@H](O)[C@H](O)[C@@H](O)CO; assay: purified protein; format: biochemical, Vitis vinifera; conditions: 1 mM NADPH, 100 mM HEPES pH 7.5, 37 °C
purified protein [3] = substrate: O=CC(=O)O; assay: purified protein; format: biochemical, Vitis vinifera; conditions: 1 mM NADPH, 100 mM HEPES pH 7.5, 37 °C
purified protein [4] = substrate: O=C(O)C(=O)CO; assay: purified protein; format: biochemical, Vitis vinifera; conditions: 1 mM NADPH, 100 mM HEPES pH 7.5, 37 °C
purified protein [5] = substrate: CC(=O)C(=O)O; assay: purified protein; format: biochemical, Vitis vinifera; conditions: 1 mM NADPH, 100 mM HEPES pH 7.5, 37 °C

B1: Vitis vinifera 2-keto-L-gulonate reductase (Vv2KGR) (enzyme, UniProt A5CAL1 1-313, looked up)
chain: MESIGVLLTCPMNPYLEQELDKRFKLFRFWDFPSANDLFREHSNSIRAVVGNSFIGADAQMIEALPKMEIVSSFSVGLDKIDLVRCKEKGIRVTNTPDVLTEDVADLALALILATLRRICESDRYVRSGSWKKGDFKLTTKFTGKSVGIIGLGRIGSAIAKRAEGFSCPISYHSRTEKPGTNYKYYPSVVELASNCQILVVACALTPETRHIINREVINALGPKGVVINIGRGLHVDEPELVSALVEGRLGGAGLDVFENEPNVPEELLAMDNVVLLPHVGSGTVETRKDMADLVLGNLEAHFLNKPLLTPVV
notes: Vv2KGR, Vitis vinifera cv; The forward primer carries an ATG of the NdeI site directly before the gene's own ATG; also called aldo-keto reductase; apo-Vv2KGR; source: E. coli BL21(DE3) pLysS-T1, pET14b, purified (HisTrap FF Crude, HiTrap Q HP, dialysis); not shown: His tag (from the vector pET14b)
stoichiometry N [1]: 2 | Km (purified protein [2]): 700 µM | Vmax (purified protein [2]): 7.54 µmol/min/mg | kcat (purified protein [2]): 4.18 s⁻¹ | Km (purified protein [3]): 44 µM | Vmax (purified protein [3]): 13.8 µmol/min/mg | kcat (purified protein [3]): 38.3 s⁻¹ | Km (purified protein [4]): 96 µM | Vmax (purified protein [4]): 6.29 µmol/min/mg | kcat (purified protein [4]): 6.97 s⁻¹ | Km (purified protein [5]): 1371 µM
